The Immune Epitope Database (IEDB)

Experiments:
Assay in all cases: IEDB peptide-MHC binding, purified MHC/competitive/radioactivity; filed as Kd, often an IC50 or EC50 that approximates it; ≥ and ≤ were set here for values at or beyond the usual limits of such assays
[1] = molecular target: HLA-A*68:01
[2] = molecular target: HLA-A*33:01
[3] = molecular target: HLA-A*03:01
[4] = molecular target: HLA-A*11:01
[5] = molecular target: HLA-A*31:01
[6] = source organism: Vaccinia virus WR
[7] = source organism: SARS coronavirus Tor2
[8] = source organism: Mammarenavirus brazilense
[9] = source organism: Mammarenavirus whitewaterense
[10] = source organism: Lassa virus Josiah
[11] = source organism: Lymphocytic choriomeningitis virus (strain WE)
[12] = source organism: Lassa virus GA391

Sequence	Kd [1, 6] [nM]	Kd [2, 6] [µM]	Kd [3, 6] [nM]	Kd [4, 6] [nM]	Kd [5, 6] [nM]	other results
TIERIFNAK	19.8	1.98	3190	1.16	240	–
LLKYAGLTIK	3150	14.5	10.7	162	1610	–
VFSFWLLCK	298	4.13	281	11.9	872	–
FIKPVSDLY	252	0.501	647	832	634	–
ELESLSKRER	388	12.6	≥ 70100	4230	3450	–
ITTLLNETAK	11.4	≥ 20.8	10.9	12.4	10700	–
NSSIISLFY	125	7.08	56.7	44.6	5260	–
VLDIISSKQY	1390	1.43	601	9680	518	–
DFSKSTSPTR	112	1.04	2720	4490	278	–
NIERQDYRR	119	0.924	≥ 66800	12000	1500	–
VSSLVKNVNK	3360	≥ 50	172	40	1180	–
GVSYEVFDDY	≥ 70200	≥ 70	≥ 70100	504	≥ 70000	–
TTFDAEYCR	–	–	–	–	–	Kd [1, 7]: 2.05 nM; Kd [2, 7]: 0.111 µM; Kd [3, 7]: ≥ 33800 nM; Kd [4, 7]: 76.1 nM; Kd [5, 7]: 103 nM
YTHGIVFDGK	4.56	0.35	7.46	8.46	156	–
CICYGSYSLY	1580	2.04	0.434	341	4390	–
DVLEIINDK	720	0.719	≥ 53500	4580	≥ 53300	–
AVRAFLLRHY	≥ 29500	≥ 70	862	1070	5240	–
DIVNEHDIKY	4610	≥ 46.1	7030	12600	≥ 37200	–
VLAAECTIFK	–	–	–	–	–	Kd [1, 7]: 258 nM; Kd [2, 7]: 0.0702 µM; Kd [3, 7]: 59.9 nM; Kd [4, 7]: 104 nM; Kd [5, 7]: 133 nM
MLPESDLDK	1240	≥ 73.2	5640	2080	≥ 36200	–
SVVNARLRAK	–	–	–	–	–	Kd [1, 7]: 250 nM; Kd [2, 7]: ≥ 33.7 µM; Kd [3, 7]: 65.5 nM; Kd [4, 7]: 89.9 nM; Kd [5, 7]: 1370 nM
LFKNVRLLK	2090	1.01	233	885	185	–
RQLFKPLTKK	–	–	–	–	–	Kd [1, 7]: 2130 nM; Kd [2, 7]: 3.67 µM; Kd [3, 7]: 1.05 nM; Kd [4, 7]: 8.16 nM; Kd [5, 7]: 383 nM

Sequence	Kd [1, 6] [nM]	Kd [2, 6] [µM]	Kd [3, 6] [nM]	Kd [4, 6] [nM]	Kd [5, 6] [nM]	other results
TVVQRCASNK	–	–	–	–	–	Kd [1, 7]: 122 nM; Kd [2, 7]: 7.49 µM; Kd [3, 7]: 140 nM; Kd [4, 7]: 103 nM; Kd [5, 7]: 224 nM
FITKEIKNR	276	6.04	≥ 78000	≥ 77900	3590	–
YTIERIFNAK	10.3	0.875	231	36.2	3550	–
TLVPVLEKK	117	14	237	15.9	332	–
PMPYMISTY	1340	≥ 77.7	≥ 45300	≥ 42100	≥ 34900	–
DISKLTNFK	1.21	0.048	781	338	5480	–
LFDFVNEKY	≥ 26100	≥ 77.7	≥ 78000	≥ 48700	≥ 30000	–
RQQLEDIFMR	2560	≥ 58.8	4830	10200	7000	–
AATIQTPTK	1670	1.26	4120	9.51	137	–
SCMVNHSTYY	–	–	–	–	–	Kd [1, 8]: 15900 nM; Kd [2, 8]: 8.99 µM; Kd [3, 8]: 100 nM; Kd [4, 8]: 16700 nM; Kd [5, 8]: 7410 nM
NFSIIELPY	3440	≥ 35	716	1070	6320	–
IIKHIYEQY	2180	≥ 41.6	1850	4140	2660	–
SSIVRQLFK	–	–	–	–	–	Kd [1, 7]: 392 nM; Kd [2, 7]: ≥ 77.7 µM; Kd [3, 7]: 58.8 nM; Kd [4, 7]: 73.2 nM; Kd [5, 7]: 2000 nM
DLTALLSCIR	10.9	0.0768	13200	1560	510	–
FSAGAGVLDK	15	0.35	452	225	575	–
SILDRIDTR	189	0.113	≥ 78000	499	71	–
TVCTVCGMWK	–	–	–	–	–	Kd [1, 7]: 52.2 nM; Kd [2, 7]: 0.587 µM; Kd [3, 7]: 24 nM; Kd [4, 7]: 5.49 nM; Kd [5, 7]: 188 nM
LSAGVEFLK	–	–	–	–	–	Kd [1, 7]: 0.244 nM; Kd [2, 7]: 8.18 µM; Kd [3, 7]: 9.41 nM; Kd [4, 7]: 0.171 nM; Kd [5, 7]: 776 nM
CVFAYVGCY	–	–	–	–	–	Kd [1, 7]: 4120 nM; Kd [2, 7]: ≥ 20.6 µM; Kd [3, 7]: 19200 nM; Kd [4, 7]: ≥ 27500 nM; Kd [5, 7]: 11900 nM
PLHKYCVNLY	6570	14.4	≥ 70100	≥ 25600	≥ 23200	–
PSLEYGANY	≥ 60600	7.94	17100	≥ 21700	≥ 10000	–
SVDIETAIR	187	17.5	≥ 78000	53	1800	–
MSAPPAEYK	–	–	–	–	–	Kd [1, 7]: 2.36 nM; Kd [2, 7]: 1.86 µM; Kd [3, 7]: 4.14 nM; Kd [4, 7]: 0.948 nM; Kd [5, 7]: 37.8 nM

Sequence	Kd [1, 6] [nM]	Kd [2, 6] [µM]	Kd [3, 6] [nM]	Kd [4, 6] [nM]	Kd [5, 6] [nM]	other results
LQFTSLEIPR	–	–	–	–	–	Kd [1, 7]: 402 nM; Kd [2, 7]: 1.21 µM; Kd [3, 7]: 804 nM; Kd [4, 7]: 850 nM; Kd [5, 7]: 30.5 nM
KCFANNQDER	–	–	–	–	–	Kd [1, 9]: 6890 nM; Kd [2, 9]: ≥ 70 µM; Kd [3, 9]: ≥ 70000 nM; Kd [4, 9]: ≥ 60300 nM; Kd [5, 9]: 6690 nM
KFLELKRGIY	10900	≥ 70	1240	≥ 69800	22.6	–
ELALTDVEKR	149	16.8	≥ 68800	≥ 69800	11800	–
DVFHLYLQY	–	–	–	–	–	Kd [1, 7]: 188 nM; Kd [2, 7]: 5.45 µM; Kd [3, 7]: 5470 nM; Kd [4, 7]: 10600 nM; Kd [5, 7]: 4240 nM
NTVVRDFENY	235	≥ 21.7	≥ 39700	520	≥ 70000	–
GFCIPSRSK	≥ 38600	≥ 77.7	973	1900	179	–
KLCKNHAEK	986	≥ 38.7	13	19.9	543	–
NQNLIPSTVK	406	≥ 70	14100	360	≥ 24800	–
LIPVSEVLLK	1210	≥ 70	5230	609	≥ 70000	–
EINEWLSSK	3.76	0.0186	201	170	7100	–
ENAVWDQYK	–	–	–	–	–	Kd [1, 10]: 42.9 nM; Kd [2, 10]: 0.958 µM; Kd [3, 10]: 12600 nM; Kd [4, 10]: 6640 nM; Kd [5, 10]: ≥ 22500 nM
WIKNLETYTR	38.1	1.13	≥ 40900	6310	361	–
STCMMCYKR	–	–	–	–	–	Kd [1, 7]: 17.8 nM; Kd [2, 7]: 0.0245 µM; Kd [3, 7]: 2250 nM; Kd [4, 7]: 9.05 nM; Kd [5, 7]: 5.01 nM
KAFKNNLSR	171	4.14	301	152	25.4	–
AIITPVVFY	1470	≥ 45.5	409	0.362	≥ 10000	–
SAYLISIFLH	–	–	–	–	–	Kd [1, 11]: ≥ 30900 nM; Kd [2, 11]: 0.874 µM; Kd [3, 11]: 668 nM; Kd [4, 11]: 5450 nM; Kd [5, 11]: 250 nM
SLMSIISTFH	–	–	–	–	–	Kd [1, 12]: 3350 nM; Kd [2, 12]: ≥ 25 µM; Kd [3, 12]: 850 nM; Kd [4, 12]: 2280 nM; Kd [5, 12]: 3740 nM
SVSPKLFIR	–	–	–	–	–	Kd [1, 7]: 1420 nM; Kd [2, 7]: 12.5 µM; Kd [3, 7]: 7450 nM; Kd [4, 7]: 755 nM; Kd [5, 7]: 116 nM
AIITPVVFYR	1.72	0.311	3700	11.3	11.6	–
HSNLTETFR	0.414	0.00495	112	40.6	0.596	–
CIPSRSKMLK	27.9	0.0632	1.09	4.27	64.5	–
SIKIKQDVR	316	4.45	10800	5370	313	–
